According to patent US20260285971 (published 2026):
Substitutions are numbered along the chain they refer to.

B1: Lab01-huFc (antibody, V domains shown)
VH: EVQLQASGGGSVQAGGSRRLSCVASGYAGGIAYMAWFRQTPGKGREGVALIATSGTTSYANSVKGRFTIFRDGADNTVYLEMSSLKPEDTATYYCAAKSRLGWPGLETSQFKYWGQGTQVTVSS
B2: HAB01-H1 (antibody, V domains shown)
VH: EVQLVESGGGLVQPGGSLRLSCAASGYAGGIAYMAWFRQAPGKGREGVANIATSGTTYYVDSVKGRFTISRDGAKNSLYLQMNSLRAEDTAVYYCAAKSRLGWPGLETSQFKYWGQGTMVTVSS
B3: HAB01-H7 (antibody, V domains shown)
VH: B2 VH with N50L, Y58S, V60A, L78V
B4: HAB01-H3 (antibody, V domains shown)
VH: B2 VH with N50L, Y58S
B5: HAB01-H8 (antibody, V domains shown)
VH: B2 VH with N50L, Y58S, K75D, L78V
B6: HAB01-H6 (antibody, V domains shown)
VH: B2 VH with E6A, N50L, Y58S, L78V
B7: HAB06-H5 (designed binder)
chain: EVQLVESGGGLVQPGGSLRLSCAASGFTFSSAWMYWFRQAPGKGLEWVSHIDPRGGSTYYADSVKGRFTISRDNAKNTLYLQMNSLRAEDTAVYYCAKDLRGLGRGQGTQVTVSS
B8: Lab06-huFc (designed binder)
chain: B7 chain with E1Q, A23T, N84R, R87K, A88S
B9: HAB06-H1 (designed binder)
chain: B7 chain with A75S, Q110M
B10: MCARH109-scFv-huFc (antibody, V domains shown)
VH: QVQLVESGGGLVHPGGSLRLSCAASGFTFRSHSMNWVRQAPGKGLEWVSSISSDSTYTYYADSVKGRFTISRDNAKNSLYLQMNSLRAEDTAVYYCARSGGQWKYYDYWGQGTLVTVSS
VL: SSELTQDPAVSVALGQTVRITCQGDSLRSYYASWYQQKPGQAPVLVIYGKNNRPSGIPDRFSGSSSGNTASLTITGAQAEDEADYYCNSRDSSGNPPVVFGGGTKLTVL
B11: JNJ7564-hIgG1 (antibody, V domains shown)
VH: QVQLVQSGAEVKKPGASVKVSCKASGYSFTGYTMNWVRQAPGQGLEWMGLINPYNSDTNYAQKLQGRVTMTTDTSTSTAYMELRSLRSDDTAVYYCARVALRVALDYWGQGTLVTVSS
VL: DIQMTQSPSSLSASVGDRVTITCKASQNVATHVGWYQQKPGKAPKRLIYSASYRYSGVPSRFSGSGSGTEFTLTISNLQPEDFATYYCQQYNRYPYTFGQGTKLEIK
B12: 5F11-hIgG1 (antibody, V domains shown)
VH: EVQLVESGGGLVQPGRSLKLSCAASGFSFSNYGMAWVRQAATKGLEWVASISTGGGNTYYRDSVKGRFIVSRDNAKNTQYLQMDSLRSEDTATYYCTRHDRGGLYWGQGVMVTVSS
VL: DIVMTQAPLSVSVTPGESASISCRSSKSLLHSNGITYVYWYFQKPGKSPQVLIYRMSNLASGVPDRFSGSGSETDFTLKISRVEAEDVGIYHCGQLLENPYTFGAGTELELK
B13: HAB03-H5 (antibody, V domains shown)
VH: EVQLVESGGGLVQPGGSLRLSCAASGDTANCIGWFRQAPGKGREGVAAIYTGLGNTYYANSAKGRFTISQDNAKNSVYLQMNSLRAEDTAVYYCAAGGILGRFCSRYFGQGTMVTVSS
B14: Lab05-huFc (antibody, V domains shown)
VH: QVQLVESGGGLVQPGGSLRLSCAASGILVSAYVMAWYRQPPGKQRDLVARLSTDGRTTYADSVKGRFTISKDNAKSTLYLQMNTLKSEDTAVYYCYAERSRGHWGQGTQVTVSS
B15: HAB05-H2 (antibody, V domains shown)
VH: B14 VH with Q1E, P40A, D46V, A49S, S76N, T84S, K86R, S87A, Q109M
B16: HAB05-H3 (antibody, V domains shown)
VH: B14 VH with Q1E, P40A, D46V, A49S, T84S, K86R, S87A, Q109M

Experiments:
human GPRC5D [1] = target: T1, human GPRC5D (human); experiment: ELISA
T1 chain: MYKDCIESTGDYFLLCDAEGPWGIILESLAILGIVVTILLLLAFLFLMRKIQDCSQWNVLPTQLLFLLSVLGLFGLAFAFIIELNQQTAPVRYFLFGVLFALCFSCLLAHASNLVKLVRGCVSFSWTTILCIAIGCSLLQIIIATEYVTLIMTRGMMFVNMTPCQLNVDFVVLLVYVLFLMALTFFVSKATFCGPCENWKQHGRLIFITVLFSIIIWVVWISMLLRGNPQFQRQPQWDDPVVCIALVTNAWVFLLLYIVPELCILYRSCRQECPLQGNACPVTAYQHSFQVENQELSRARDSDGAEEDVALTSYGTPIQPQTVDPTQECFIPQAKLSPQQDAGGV

human GPRC5D [2] = target: T1, human GPRC5D; experiment: FACS molp-8
human GPRC5D [3] = target: T1, human GPRC5D; experiment: FACS NCI-H929
human GPRC5D [4] = target: T1, human GPRC5D; experiment: FACS RPMI-8226
human GPRC5D [5] = target: T1, human GPRC5D; experiment: FACS molp-8
human GPRC5D [6] = target: T1, human GPRC5D; experiment: FACS NCI-H929
human GPRC5D [7] = target: T1, human GPRC5D; experiment: FACS RPMI-8226
human GPRC5D [8] = target: T1, human GPRC5D; experiment: FACS CHOK1-human GPRC5D
human GPRC5D [9] = target: T1, human GPRC5D; experiment: ELISA
human GPRC5D [10] = target: T1, human GPRC5D; experiment: ELISA
human GPRC5D [11] = target: T1, human GPRC5D; experiment: ELISA
human GPRC5D [12] = target: T1, human GPRC5D; experiment: FACS molp-8
human GPRC5D [13] = target: T1, human GPRC5D; experiment: FACS molp-8
human GPRC5D [14] = target: T1, human GPRC5D; experiment: FACS molp-8
human GPRC5D [15] = target: T1, human GPRC5D; experiment: FACS NCI-H929
human GPRC5D [16] = target: T1, human GPRC5D; experiment: FACS NCI-H929
human GPRC5D [17] = target: T1, human GPRC5D; experiment: FACS NCI-H929
human GPRC5D [18] = target: T1, human GPRC5D; experiment: FACS RPMI-8226
human GPRC5D [19] = target: T1, human GPRC5D; experiment: FACS RPMI-8226
human GPRC5D [20] = target: T1, human GPRC5D; experiment: FACS RPMI-8226

Binder	EC50 (human GPRC5D [1]) [nM]	EC50 (human GPRC5D [2]) [nM]	EC50 (human GPRC5D [3]) [nM]	EC50 (human GPRC5D [4]) [nM]	EC50 (human GPRC5D [5]) [nM]	EC50 (human GPRC5D [6]) [nM]	EC50 (human GPRC5D [7]) [nM]	EC50 (human GPRC5D [8]) [nM]	also measured
B1	0.0182	0.625	0.653	2.08					
B2	0.023	3.3	1.63	103					
B3	0.0264	0.76	0.916	3.7					
B4	0.0259	1.37	1.02	36					
B5	0.0336	1.24	1.41	1.77					
B6	0.0178	0.755	0.666	25.7					
B7					0.178	0.38	0.387	0.241	
B8					0.132	0.273	0.261	0.22	
B9					0.14	0.166	0.406	0.324	
B10					3.23	2.45		0.286	
B11	0.0379	26.9	17.9	~5460					EC50 (human GPRC5D [9]): 0.0211 nM; EC50 (human GPRC5D [10]): 0.028 nM; EC50 (human GPRC5D [11]): 0.0559 nM; EC50 (human GPRC5D [12]): 41.2 nM; EC50 (human GPRC5D [13]): 45.9 nM; EC50 (human GPRC5D [14]): 34.4 nM; EC50 (human GPRC5D [15]): 6.97 nM; EC50 (human GPRC5D [16]): 9.88 nM; EC50 (human GPRC5D [17]): 25.6 nM; EC50 (human GPRC5D [18]): ~1360 µM; EC50 (human GPRC5D [19]): ~635 µM; EC50 (human GPRC5D [20]): 73.4 nM
B12	0.0498	2.92	3.05	26.5					EC50 (human GPRC5D [9]): 0.0371 nM; EC50 (human GPRC5D [10]): 0.0295 nM; EC50 (human GPRC5D [11]): 0.0659 nM; EC50 (human GPRC5D [12]): 5.64 nM; EC50 (human GPRC5D [13]): 12.6 nM; EC50 (human GPRC5D [14]): 3.68 nM; EC50 (human GPRC5D [15]): 1.96 nM; EC50 (human GPRC5D [16]): 2.69 nM; EC50 (human GPRC5D [17]): 2.9 nM; EC50 (human GPRC5D [18]): 0.0187 µM; EC50 (human GPRC5D [19]): 0.0121 µM; EC50 (human GPRC5D [20]): 7.07 nM
B13									EC50 (human GPRC5D [11]): 0.0353 nM; EC50 (human GPRC5D [14]): 0.738 nM; EC50 (human GPRC5D [17]): 0.892 nM; EC50 (human GPRC5D [18]): 0.0415 µM
B14					0.0616	0.111	31.6	0.279	
B15					0.0839	0.202	0.141	0.514	
B16					0.0433	0.0861	0.12	0.248	
